Laboratory results: patent US7897371B2, “Activation of mutated RAC-PK” (Novartis AG, priority 1995, dated 2011)
Several values for one entry are separate records, joined by “and”; a condition that tells them apart may be missing. Identical values can stand only once. Like-named read-outs stand apart in the source and are kept apart here. No end group written: not given here.

Experiments:
p70 S6 kinase = biological target: T1, p70 S6 kinase (Rattus norvegicus, UniProt P67999); settings: cited from earlier work; for Km: read-out: Km for phosphorylation by p70 S6 kinase
T1 construct: from tissue; host or cells: rat liver

RAC-PKα [1] = biological target: RAC-PKα (Homo sapiens, UniProt P31749)
GSK3β = assay type: cell-based, human
RAC-PKα [2] = assay type: cell-based, human
RAC-PK = RAC-PK activity immunoprecipitated from Swiss 3T3 cells (MBP substrate); assay type: cell-based; settings: for Increase in RAC-PK activity: Swiss 3T3 cells, 1 μM okadaic acid, 0.1 mM vanadate, insulin or 10% FCS
GSK3 = assay type: cell-based
RAC-PKα [3] = system: RAC-PKα
MAPKAP kinase-1 = settings: cited from earlier work
[4] = system: CC(C)C[C@H](NC(=O)[C@H](CO)NC(=O)[C@H](CO)NC(=O)[C@@H](NC(=O)[C@H](CCCNC(=N)N)NC(=O)[C@@H]1CCCN1C(=O)[C@@H](N)CCCNC(=N)N)[C@@H](C)O)C(=O)O; assay: purified protein, by the assay type; settings: other: phosphorylation by RAC-PKα; pH 7.5; 30.0 °C
[5] = system: CC(C)[C@H](NC(=O)[C@@H](NC(=O)[C@H](CCCNC(=N)N)NC(=O)[C@@H]1CCCN1C(=O)[C@@H](N)CCCNC(=N)N)[C@@H](C)O)C(=O)N[C@@H](CO)C(=O)N[C@@H](Cc1ccccc1)C(=O)O; assay: purified protein, by the assay type; settings: other: phosphorylation by RAC-PKα; pH 7.5; 30.0 °C
[6] = system: CC(C)[C@H](NC(=O)[C@H](CCCNC(=N)N)NC(=O)[C@@H]1CCCN1C(=O)[C@@H](N)CCCNC(=N)N)C(=O)N[C@@H](CO)C(=O)N[C@@H](CO)C(=O)N[C@@H](Cc1ccccc1)C(=O)O; assay: purified protein, by the assay type; settings: other: phosphorylation by RAC-PKα; pH 7.5; 30.0 °C
[7] = system: CC(C)[C@H](NC(=O)[C@H](CO)NC(=O)[C@H](CO)NC(=O)[C@@H](NC(=O)[C@H](CCCNC(=N)N)NC(=O)[C@@H]1CCCN1C(=O)[C@@H](N)CCCNC(=N)N)[C@@H](C)O)C(=O)O; assay: purified protein, by the assay type; settings: other: phosphorylation by RAC-PKα; pH 7.5; 30.0 °C
[8] = system: C[C@@H](O)[C@H](NC(=O)[C@H](CCCNC(=N)N)NC(=O)[C@@H]1CCCN1C(=O)[C@@H](N)CCCNC(=N)N)C(=O)NCC(=O)N[C@@H](CO)C(=O)N[C@@H](Cc1ccccc1)C(=O)O; assay: purified protein, by the assay type; settings: other: phosphorylation by RAC-PKα; pH 7.5; 30.0 °C
[9] = system: C[C@@H](O)[C@H](NC(=O)[C@H](CCCNC(=N)N)NC(=O)[C@@H]1CCCN1C(=O)[C@@H](N)CCCNC(=N)N)C(=O)N[C@@H](CC(N)=O)C(=O)N[C@@H](CO)C(=O)N[C@@H](Cc1ccccc1)C(=O)O; assay: purified protein, by the assay type; settings: other: phosphorylation by RAC-PKα; pH 7.5; 30.0 °C
[10] = system: C[C@@H](O)[C@H](NC(=O)[C@H](CCCNC(=N)N)NC(=O)[C@@H]1CCCN1C(=O)[C@@H](N)CCCNC(=N)N)C(=O)N[C@@H](CO)C(=O)N[C@@H](CO)C(=O)N[C@@H](CCCCN)C(=O)O; assay: purified protein, by the assay type; settings: other: phosphorylation by RAC-PKα; pH 7.5; 30.0 °C
[11] = system: C[C@@H](O)[C@H](NC(=O)[C@H](CCCNC(=N)N)NC(=O)[C@@H]1CCCN1C(=O)[C@H](CCCNC(=N)N)NC(=O)CN)C(=O)N[C@@H](CO)C(=O)N[C@@H](CO)C(=O)N[C@@H](Cc1ccccc1)C(=O)O; assay: purified protein, by the assay type; settings: other: phosphorylation by RAC-PKα; pH 7.5; 30.0 °C
[12] = system: C[C@H](NC(=O)CNC(=O)[C@H](CCCNC(=N)N)NC(=O)[C@@H]1CCCN1C(=O)[C@@H](N)CCCNC(=N)N)C(=O)N[C@@H](CO)C(=O)N[C@@H](Cc1ccccc1)C(=O)O; assay: purified protein, by the assay type; settings: other: phosphorylation by RAC-PKα; pH 7.5; 30.0 °C
[13] = system: C[C@H](NC(=O)[C@H](C)NC(=O)[C@H](CCCNC(=N)N)NC(=O)[C@@H]1CCCN1C(=O)[C@@H](N)CCCNC(=N)N)C(=O)N[C@@H](CO)C(=O)N[C@@H](Cc1ccccc1)C(=O)O; assay: purified protein, by the assay type; settings: other: phosphorylation by RAC-PKα; pH 7.5; 30.0 °C
[14] = system: C[C@H](NC(=O)[C@H](C)NC(=O)[C@H](CCCNC(=N)N)NC(=O)[C@@H]1CCCN1C(=O)[C@@H](N)CCCNC(=N)N)C(=O)N[C@H](C(=O)N[C@@H](Cc1ccccc1)C(=O)O)[C@@H](C)O; assay: purified protein, by the assay type; settings: pH 7.5; 30.0 °C
[15] = system: C[C@H](NC(=O)[C@H](CCCNC(=N)N)NC(=O)[C@@H]1CCCN1C(=O)[C@@H](N)CCCNC(=N)N)C(=O)NCC(=O)N[C@@H](CO)C(=O)N[C@@H](Cc1ccccc1)C(=O)O; assay: purified protein, by the assay type; settings: other: phosphorylation by RAC-PKα; pH 7.5; 30.0 °C
[16] = system: C[C@H](NC(=O)[C@H](CO)NC(=O)[C@H](CO)NC(=O)[C@@H](NC(=O)[C@H](CCCNC(=N)N)NC(=O)[C@@H]1CCCN1C(=O)[C@@H](N)CCCNC(=N)N)[C@@H](C)O)C(=O)O; assay: purified protein, by the assay type; settings: other: phosphorylation by RAC-PKα; pH 7.5; 30.0 °C
[17] = system: C[C@H](NC(=O)[C@H](Cc1ccccc1)NC(=O)[C@H](CO)NC(=O)[C@H](CO)NC(=O)[C@@H](NC(=O)[C@H](CCCNC(=N)N)NC(=O)[C@@H]1CCCN1C(=O)[C@@H](N)CCCNC(=N)N)[C@@H](C)O)C(=O)O; assay: purified protein, by the assay type; settings: other: phosphorylation by RAC-PKα; pH 7.5; 30.0 °C
[18] = system: C[C@H](NC(=O)[C@H](Cc1ccccc1)NC(=O)[C@H](CO)NC(=O)[C@H](CO)NC(=O)[C@@H](NC(=O)[C@H](CCCNC(=N)N)NC(=O)[C@H](C)NC(=O)[C@H](CCCNC(=N)N)NC(=O)CN)[C@@H](C)O)C(=O)O; assay: purified protein, by the assay type; settings: other: phosphorylation by RAC-PKα; pH 7.5; 30.0 °C
[19] = system: N=C(N)NCCC[C@H](NC(=O)[C@@H]1CCCN1C(=O)[C@@H](N)CCCNC(=N)N)C(=O)NCC(=O)N[C@@H](CO)C(=O)N[C@@H](CO)C(=O)N[C@@H](Cc1ccccc1)C(=O)O; assay: purified protein, by the assay type; settings: other: phosphorylation by RAC-PKα; pH 7.5; 30.0 °C
[20] = values marked *: data reported previously

T1 sequence (P67999 24-525): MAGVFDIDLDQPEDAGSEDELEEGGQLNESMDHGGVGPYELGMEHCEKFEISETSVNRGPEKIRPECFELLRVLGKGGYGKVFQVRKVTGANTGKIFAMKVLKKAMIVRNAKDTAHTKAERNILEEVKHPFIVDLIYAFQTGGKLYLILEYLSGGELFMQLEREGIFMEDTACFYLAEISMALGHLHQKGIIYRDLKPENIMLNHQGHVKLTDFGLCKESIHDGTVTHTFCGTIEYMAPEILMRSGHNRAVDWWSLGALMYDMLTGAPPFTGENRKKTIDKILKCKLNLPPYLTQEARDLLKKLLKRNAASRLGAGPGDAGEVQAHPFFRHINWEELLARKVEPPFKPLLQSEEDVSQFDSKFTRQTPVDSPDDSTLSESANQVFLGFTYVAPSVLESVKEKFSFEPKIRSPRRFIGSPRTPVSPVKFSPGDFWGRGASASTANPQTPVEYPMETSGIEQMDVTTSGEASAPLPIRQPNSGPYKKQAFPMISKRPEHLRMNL
Chain of RAC-PKα (Homo sapiens, UniProt P31749) (P31749 whole entry): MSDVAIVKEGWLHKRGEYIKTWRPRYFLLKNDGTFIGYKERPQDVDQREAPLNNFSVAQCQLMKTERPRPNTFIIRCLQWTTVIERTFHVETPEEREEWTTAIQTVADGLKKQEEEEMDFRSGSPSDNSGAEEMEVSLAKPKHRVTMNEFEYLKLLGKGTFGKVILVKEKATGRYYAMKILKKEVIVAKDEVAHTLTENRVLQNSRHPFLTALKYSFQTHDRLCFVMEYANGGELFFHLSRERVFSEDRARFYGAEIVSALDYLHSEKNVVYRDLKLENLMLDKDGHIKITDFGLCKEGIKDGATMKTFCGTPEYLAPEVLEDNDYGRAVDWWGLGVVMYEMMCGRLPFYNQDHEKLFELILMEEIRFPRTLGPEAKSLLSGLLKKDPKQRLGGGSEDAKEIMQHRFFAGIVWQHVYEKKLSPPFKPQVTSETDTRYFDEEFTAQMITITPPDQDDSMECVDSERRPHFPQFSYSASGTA
Chain of GSK3β (P49841 whole entry): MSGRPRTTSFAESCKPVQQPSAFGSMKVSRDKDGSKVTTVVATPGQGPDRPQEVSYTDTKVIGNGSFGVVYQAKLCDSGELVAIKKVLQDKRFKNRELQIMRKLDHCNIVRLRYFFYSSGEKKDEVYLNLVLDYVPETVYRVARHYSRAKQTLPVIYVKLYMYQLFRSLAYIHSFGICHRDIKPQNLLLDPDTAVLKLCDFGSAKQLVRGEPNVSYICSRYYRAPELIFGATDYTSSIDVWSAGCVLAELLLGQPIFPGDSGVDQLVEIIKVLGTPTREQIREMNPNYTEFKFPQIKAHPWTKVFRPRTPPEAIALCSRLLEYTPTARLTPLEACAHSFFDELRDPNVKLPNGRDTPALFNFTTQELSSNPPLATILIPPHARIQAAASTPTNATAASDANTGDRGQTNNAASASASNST

## KKRNRTLSVA
p70 S6 kinase
  Km: 1.5 µM

## RPKTSSF [RPKTSSF]
RAC-PKα [1]; phosphorylation by RAC-PKα
  Km: > 500 µM

## RPRNSSF [RPRNSSF]
RAC-PKα [1]; phosphorylation by RAC-PKα
  Km: > 500 µM

## RPRTSSF [RPRTSSF]
RAC-PKα [1]; phosphorylation by RAC-PKα
  Km: 5 µM

## RPRASSF
RAC-PKα [1]
  Km: 12 µM
  V (0.1 mM): 89
  Vmax (U/mg): 230 U/mg

## RPRTASF
RAC-PKα [1]
  Km: 20 µM
  V (0.1 mM): 83
  Vmax (U/mg): 213 U/mg

## KPRTSSF [KPRTSSF]
RAC-PKα [1]; phosphorylation by RAC-PKα
  Km: > 500 µM

## HA-KD-RAC-PKα: kinase dead mutant, Lys179 changed to Ala
GSK3β
  Increase in GSK3 activity on PP2A treatment: ~12%

## GRPRTSSFAEG
RAC-PKα [1]; phosphorylation by RAC-PKα
  Km: 4 µM

## RPRTSSE [RPRTSSE]
RAC-PKα [1]; phosphorylation by RAC-PKα
  Km: > 500 µM

## RPRTSS [RPRTSS]
RAC-PKα [1]; phosphorylation by RAC-PKα
  Km: > 500 µM

## RFRGGSF
RAC-PKα [1]
  Km: 105 µM
  V (0.1 mM): 55
  Vmax (U/mg): 345 U/mg

## insulin: insulin from Novo-Nordisk
RAC-PKα [2]
  Activation of transfected RAC-PKα: 20 fold
  Half time for activation of transfected RAC-PKα: 1 min
RAC-PK
  Increase in RAC-PK activity: 4.5 fold
GSK3
  Increase in 32P-labelling of GSK3-α and GSK3-β: 60-100%
  Inhibition of GSK3: 40-50%
RAC-PKα [3]
  Half-time (t0.5) of activation of RAC-PK: 1 min

## C=C1[C@@H](O)[C@@H]2O[C@]3(CC[C@H](/C=C/[C@@H](C)[C@@H]4CC(C)=C[C@@]5(O[C@H](C[C@@](C)(O)C(=O)O)CC[C@H]5O)O4)O3)CC[C@H]2O[C@@H]1[C@@H](O)C[C@H](C)[C@H]1O[C@@]2(CCCCO2)CC[C@H]1C [okadaic acid]
RAC-PK; Swiss 3T3, simultaneous 1 μM okadaic acid and 10% serum
  Activation of RAC-PK: 5 fold
RAC-PK
  Increase in RAC-PK activity: 3 fold

## IGF-1
RAC-PKα [2]
  Activation of transfected RAC-PKα: 46 fold and 38 fold
  Half time for activation of transfected RAC-PKα: 1 min

## KKRNKTLSVA [peptide substrate with Lys at position n-3]
RAC-PKα [1]
  Phosphorylation by RAC-PKα: does not phosphorylate
MAPKAP kinase-1; read-out: Km for phosphorylation by MAPKAP-K1
  Km: 17 µM
MAPKAP kinase-1; [20]
  MAPKAP kinase-1 Vmax (U/mg): 840* U/mg
p70 S6 kinase
  Km: 34 µM
p70 S6 kinase; [20]
  p70 S6 kinase Vmax (U/mg): 760* U/mg

## RPRTSTF [RPRTSTF]
RAC-PKα [1]; phosphorylation by RAC-PKα
  Km: 30 µM

## [O]=[V]([O-])([O-])[O-] [vanadate]
RAC-PK
  Increase in RAC-PK activity: 11 fold

## RAC-PKα (Homo sapiens)
[4]
  Km: 8 µM
  Vmax: 278 U/mg
[5]
  Km: 30 µM
  Vmax: 365 U/mg
[6]
  Km: 25 µM
  Vmax: 273 U/mg
[7]
  Km: 21 µM
  Vmax: 300 U/mg
[8]
  Km: 25 µM
  Vmax: 233 U/mg
[9]
  Km: 30 µM
  Vmax: 300 U/mg
[10]
  Km: 80 µM
  Vmax: 308 U/mg
[11]
  Km: 8 µM
  Vmax: 385 U/mg
[12]
  Km: 105 µM
  Vmax: 160 U/mg
[13]
  Km: 25 µM
  Vmax: 215 U/mg
[14]
  Km: 25 µM
  Vmax: 230 U/mg
[15]
  Km: 49 µM
  Vmax: 114 U/mg
[16]
  Km: 250 µM
  Vmax: 265 U/mg
[17]
  Km: 8 µM
  Vmax: 305 U/mg
[18]
  Km: 10 µM
  Vmax: 230 U/mg
[19]
  Km: 60 µM
  Vmax: 163 U/mg

B1: MBP: myelin basic protein, kinase assay substrate (protein, UniProt P02687 1-169, looked up)
Myelin basic protein: AAQKRPSQRSKYLASASTMDHARHGFLPRHRDTGILDSLGRFFGSDRGAPKRGSGKDGHHAARTTHYGSLPQKAQGHRPQDENPVVHFFKNIVTPRTPPPSQGKGRGLSLSRFSWGAEGQKPGFGYGGRASDYKSAHKGLKGHDAQGTLSKIFKLGGRDSRSGSPMARR
RAC-PKα [1]
  Km: 5 µM
  Vmax (U/mg): 25 U/mg
